The labels stand for the following.
B1: 367_F02 (antibody, V domains shown)
VH: EVQLLESGGGLVQPGGSLRLSCAASGFTFDSYSMNWVRQAPGKGLEWVANINYNGGYTSYADSVKGRFTISRDNSKNTLYLQMNSLRAEDTAVYYCARSATWHDTHLDYWGQGTLVTVSS
VL: DIQMTQSPSSLSASVGDRVTITCRASQSIISYVNWYQQKPGKAPKLLIYAATSRHSGVPSRFSGSGSGTDFTLTISSLQPEDFATYYCQQSYESPLTFGGGTKVEIK
B2: 374_D12 (antibody, V domains shown)
VH: B1 VH with A49S, N50G, S59G
VL: B1 VL with I30V, L47V, H55A, E93D, S94L
B3: 366_D02 (antibody, V domains shown)
VH: B1 VH with D30S, N50S
VL: B1 VL with I30L, A51T, R54L, H55A, E93D, S94L
B4: 374_E09 (antibody, V domains shown)
VH: B1 VH with D30S, S31D, A49S, N50G, T58K, S59G
VL: B1 VL with I30V, S31T, V33L, L47V, H55A, E93D
B5: 373_B11 (antibody, V domains shown)
VH: B1 VH with D30S, G55S, T58K, S59G
VL: B1 VL with I30L, V33L, H55A, E93D, S94N
B6: 369_F12 (antibody, V domains shown)
VH: B1 VH with D30S, N50S, G55S, T58K
VL: B1 VL with V33L, A51V, R54L, H55A, S94N
B7: 369_B12 (antibody, V domains shown)
VH: B1 VH with A49S, N50G, T58K
VL: B1 VL with I30L, S31T, A51T, R54L, H55A, E93D
B8: 368_F12 (antibody, V domains shown)
VH: B1 VH with S31D, N50S, G55S, T58K
VL: B1 VL with I30V, S31T, V33L, L47V, R54L, H55A, E93D, S94L
B9: 374_H08 (antibody, V domains shown)
VH: B1 VH with A49S, N50G, S59G
VL: B1 VL with I30L, V33L, R54L, S94N
B10: 372_D04 (antibody, V domains shown)
VH: B1 VH with D30S, G55S, S59G
VL: B1 VL with I30L, S31T, V33L, R54L, E93D, S94L
B11: 374_B09 (antibody, V domains shown)
VH: B1 VH with D30S, A49S, N50G, T58K
VL: B1 VL with I30V, S31R, V33L, L47V, R54L, H55A, S94L
B12: 371_C09 (antibody, V domains shown)
VH: B1 VH with A49S, N50G, T58K
VL: B1 VL with I30L, S31T, T52S, R54L, H55Q, E93D, S94N
B13: 368_E11 (antibody, V domains shown)
VH: B1 VH with S33G, N35H
VL: B1 VL with S94L
B14: 374_C02 (antibody, V domains shown)
VH: B1 VH with A49S, N50G, S59G
VL: B1 VL with I30L, V33L, E93D
B15: 370_A06 (antibody, V domains shown)
VH: B1 VH with D30S, N50S, G55S, T58K
VL: B1 VL with I30V, S31T, V33L, L47V, R54L, H55A, E93D, S94L
B16: 373_B08 (antibody, V domains shown)
VH: B1 VH with G55S, T58K, S59G
VL: B1 VL with I30L, S31T, V33L, L47V, R54L, H55A, S94N
B17: 368_H12 (antibody, V domains shown)
VH: B1 VH with N50S, G55S, T58K, S59G
VL: B1 VL with I30V, S31T, V33L, H55A
B18: 370_C04 (antibody, V domains shown)
VH: B1 VH with D30S, S33G, N50S, G55S
VL: B1 VL with I30L, V33L, T52S, R54L, H55Q, S94N
B19: 365_C09 (antibody, V domains shown)
VH: B1 VH with D30S, S31D, S33G, A49S, N50G, T58K
VL: B1 VL with I30V, H55A, E93D, S94T
B20: 369_B02 (antibody, V domains shown)
VH: B1 VH with A49S, N50G, T58K
VL: B1 VL with I30L, V33L, L47V, H55A, E93N, S94L
B21: 373_F03 (antibody, V domains shown)
VH: B1 VH with G55S, S59G
VL: B1 VL with I30L, S31T, E93D
B22: 369_F08 (antibody, V domains shown)
VH: B1 VH with D30S, S31D, S33G, N35H, A49S, N50G, G55S, S99G, T101N, H106A
VL: B1 VL with I30L, V33L, T52S, R54L, H55Q, E93D, S94L
B23: 369_A03 (antibody, V domains shown)
VH: B1 VH with D30S, S33G, A49S, S59G, T101N, H106A
VL: B1 VL with I30L, S31T, V33L, A51V, S91G, E93D, S94L

Changes are numbered by the printed parent chain.

The record followed here is patent publication US20210380703A1.

One experiment concerns the target human Fc (human). Nature of the experiment: ELISA; negative control. For orientation: An ELISA detects its analyte on a solid surface through an enzyme-linked reagent.
Consider B1, for which the optical density worked out at 0.315 OD.

As for B2, the optical density was 0.235 OD.

For B3, the optical density worked out at 0.349 OD.

As to B4, the optical density amounted to 0.162 OD.

The molecule B5 came in with an optical density of 0.178 OD.

Molecule B6 yielded an optical density of 0.434 OD.

On to B7, for which the optical density worked out at 0.4 OD.

Consider B8, for which the optical density is 0.349 OD.

B9 had an optical density of 0.199 OD.

B10 registered an optical density of 0.419 OD.

The molecule B11 had an optical density of 0.172 OD.

Take B12: the optical density came out at 0.308 OD.

Molecule B13 came in with an optical density of 0.341 OD.

Molecule B14 registered an optical density of 0.167 OD.

As to B15, the optical density stood at 0.331 OD.

B16 displayed an optical density of 0.17 OD.

B17 registered an optical density of 0.381 OD.

B18 returned an optical density of 0.334 OD.

Consider B19, for which the optical density was found to be 0.266 OD.

As for B20, the optical density turned out to be 0.456 OD.

Turning to B21, the optical density stood at 0.179 OD.

The target in another experiment is human ACVR2A (human) (UniProt P27037). Nature of the experiment: ELISA.
human ACVR2A (human), sequence (P27037 20-135 limits assumed): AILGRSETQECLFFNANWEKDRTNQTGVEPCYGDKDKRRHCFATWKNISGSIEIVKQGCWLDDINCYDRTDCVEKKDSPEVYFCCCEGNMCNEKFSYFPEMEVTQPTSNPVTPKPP
In turn, B22 yielded an optical density of 0.503 OD.

For another experiment, the target named is Mouse ACVR2A (mouse) (UniProt P27038). The experiment can be described thus: ELISA.
Mouse ACVR2A (mouse), sequence (P27038 20-135 limits assumed): as the sequence (P27037 20-135 limits assumed) above, with K20R, V73I counted along it
The molecule B23 came in with an optical density of 0.561 OD.

B22 had an optical density of 0.589 OD.

For the next experiment, the target named is Human Fc (human). The experiment can be described thus: ELISA, negative control.
In the case of B23, the optical density was 0.347 OD.

A further experiment deals with human Fc (human). Nature of the experiment: ELISA, negative control.
For B22, the optical density is 0.302 OD.
